Source: the DeepSol protein solubility set

Test: soluble on expression in E. coli; label from the status in PepcDB or PDB records

Which “soluble on expression in E. coli” value does the source give for “MGSDKIHHHHHHMPSIENMIAWMQARKGKVTYSMTSRMGPNSYDCSSSIFFAMIAGGFLSAGSMGNTETLFGMSGTKLKEISRGEVQRGDVFISGTPGGSAGSDGHTGIFLSNGSFIHCSYTHNGIAVDTNDAYMSTRLPHHFYRIVGSGSGNTDNKPQMVTLNVDGQFGNATAKRLQEYFDTAGKDGVISHQYKQTFNQNIYAAQFDSSLTGSNVVKALQRFLGIGQDGLFGQGTIKALQKHLGTTQDGTISPVSDSVRELQRRLNANKL” here?
Its value is “not soluble”.

Which “soluble on expression in E. coli” value does the source give for “MRYTGYMMEVRQLRHFVTVAEWESFTLAAQQLHIAQPALSISIKKFEQQLGVTLFKRDERKVALTHEGEVLLEHAKRILQQVNDAQLAVDELKGVVKGEVRLGAPSMMGSYFFPQIIMAFKSHFPNLKMTVIEAGTQSIRRMLLSGELDIGVILNHDLPDDLAADPLLSSQMVAVVGKNHELAERRHLTFAEFFEHELVMFKPGYFHRDFIDKVCREHKFTADFSFETNLLPMILSIVKHEYAITALLELVTSNEPEVKAIPFEPPVWLDLALAWRKEGYLSNADRTFIEFVKKYV” here?
The value was “not soluble”.

Which “soluble on expression in E. coli” value does the source give for “SNAMWKRMTAKAEGLYIADTKSFVTKQMDKLDFDYGGIPGDLHFGLTKKAGAREPMFSRGTEIFNRRQISIVSIEECNEIALKMGVPRILPEWLGANVAVSGMPDLTSLKEGSRIIFPSGAALLCEGENDPCIQPGEVIQSYYPDQPKLASAFVRHALGIRGIVCIVERPGAVYTGDEIEVHSYQRKVKRKAERV” here?
The value was “soluble”.

Which “soluble on expression in E. coli” value does the source give for “MPIVRWGKTIKQELSEGWSRVIQHELTGKLDGHHGGFHETGDESMSDDLSDQARSTAVKQLKALGLSTYAARTFVALISLGEGTAQDVSEVADVPRTRVYDAADELRDRGLVDVKQSSPRRYWAISTETAGRHFEQEYDHRVTVLTNALDRLASANRSTEQQGVWTVTGRDTVTGRVVDFISSADDEVVYMTAEELLTDEIAESLSTASDRGVTIRLAEMSQSVEAQLERDVPDAQLFESAWEWSDTPAGRLLMIDQQKTLVSVLVGANGGYSLEPSDETAIWGTGQSNSLVVVLKALFAWQLANNRE” here?
The value was “not soluble”.

For “MSLIKFNIAQWRAWAPGLESVDAWQAWSRQPALPENSDAAPDVSFLPAMQRRRLSRLARMAFSVGWPLAEGLEQLPLVFISRHGETPRTFEILSDLAAEQPLSPTQFSLSVHNAVIGLWSIMRGETSEMTALAAAGDGLEHGLLEAATLLADGAPHVLLVITEEQPPEAYASWIDDVPFPYALGLLLTPGDDWQLSLGSHDGQTPRAQWPHALNLLRTLLGAQTFCQHAWMNRVWTWQRNHEGHHHHHH”, which “soluble on expression in E. coli” value is on record?
The value was “soluble”.

With “MAHHHHHHMRHSTYVEVCLRNIAYNVECIRRIAGKAELIPMVKGNAYGHGMGKVSEYLHNVCGVHTFGVASLGEALELIESQPSIAEKAQNEIFVFSDTEVLNEGCQSYYQPCGRWAVRLTPILGTLPQLKAFCASNAFNNTKLCLKLETGMNRLGLRFDELEEAVPILKQRGGVDLLLQHFGIAGSVERLAETLNHYEAFKNAKKFLHDSGVEVRATSVSNSGAVEQRIGLEETYIRPGIMLYGPRSVTSKNLWNGKFASCFYTKVLHHFPLRKGEGVGYDLTPVKADSVIVMLPIGYADGFLCTYKGMPIKVTPEDAAEPIIGTVHGRINMDMAAVVVYPEEVGKNIGNIMAAVKKESRIHVWGDDIEEKAVSVGAIPHQLTCGLSIRVPRIYM” as the sequence, how does the “soluble on expression in E. coli” value read?
The value was “not soluble”.

For “AGLENTDHTNNEHRLTQLLSIAEECETLDRLKQLVDSGRIFTAYNGFEPSGRIHIAQALITVMNTNNMIECGGQMIIYIADWFAKMNLKMNGDINKIRELGRYFIEVFKACGINLDGTRFIWASEFIASNPSYIERMLDIAEFSTISRVKRCCQIMGRNESDCLKASQIFYPCMQAADVFELVPEGIDICQLGIDQRKVNMLAIEYANDRGLKIPISLSHHMLMSLSGPKKKMSKSDPQGAIFMDDTEQEVSEKISRAYCTDETFDNPIFEYIKYLLLRWFGTLNLCGKIYTDIESIQEDFSSMNKRELKTDVANYINTIIDLVREHFKKPELSELLSNVKSYQQPSK”, which “soluble on expression in E. coli” value is on record?
Its value is “soluble”.

Which “soluble on expression in E. coli” value does the source give for “MGSDKIHHHHHHMAGDIIVRNKFCDISKVRFRKWDEIDVIFWKFGKSNPERKSGGYYLNAYKDAYIQYNKERIIKYANQAGILPELLGGVAWIESGGMPEEYKFQVFEIKRFLKLKSSPENKTSFGSVAMQIQVAARTLGLNPDILTTRDQLELATCLMEDDFNLWIVAQHLRDMILYDYPSVAALYLTDEQYMMAGIRYNRGIQRKLSEFIRFIDAKPERGSAEFDYISYGVRLLQIRNHIRKLLELNT” here?
Its value is “not soluble”.

For “MSLTITENPYRLSLDIEGIGFQTADAIATSLGVAKNSLMRAEAGISHVLGELSQNGHCAVPEETLIDEASRLLQIDHPLVVEAVKNEKLTRRIVGETIDGVPCIFLESLHRAETGVASGLHRLMRGPLPWNALDPHDALPWIEETTALELSPSQRSAVTLVLASKVSIITGGPGVGKTTILKAILSVLQREKVSVALCAPTGRAAKRLTESTGIEAKTIHRLLEFDPQAFDFKRGRGNPLDASFVVVDETSMVDVVLMQKLVAAIPDHAAVVFVGDVDQLPSVGPGAVLADMISSEAIPTVRLTEIFRQAAESMIVVNAHRINQGDMPLTEGHHHHHH”, which “soluble on expression in E. coli” value is on record?
Its value is “soluble”.

With “MGSDKIHHHHHHMTDPRILSLQQAVPALRLKTEPADLEHYGRDWTRRWTPNPLAIALPGSVEEVQAVVRWANTHAVAVVPSGGRTGLSGGAVAANGELVLSLERLNKPLAFDAVDRTLTVQAGMPLEAVHNAAREHGLVYPVDFAARGSCSIGGNIATNAGGIRVIRYGNTREWVAGLSVVTGTGELLHLNNALVKNSSGYDFRHLMIGSEGTLGIVVEATLRLTDPPPPSNVMLLALPSFDVLMQVFAAFRAQLRLEAFEFFTDRALEHVLAHGAQAPFAEVHPYYVVTEFAAGDEAQEAAAMAAFEACMEQGWVSDGVISQSDAQAAQLWRLREGITEALARYTPYKNDVSVRISAMPAFLAETQALLHDAYPHFDVVWFGHIGDGNLHINVLKPDATSQADFITACEQVTKLLAQSLQRFDGSISAEHGIGLVKKPYLWSTRSAAEIALMRGIKHVLDPHLLLNPGKLFDMDEVPGATPAG” as the sequence, how does the “soluble on expression in E. coli” value read?
The value was “not soluble”.

Which “soluble on expression in E. coli” value does the source give for “MGSDKIHHHHHHMARKKRNPDAEKLAESILNAYQPESVDDMQDALKDVFGPLFEKMLQGELNNHLGYDAHSKEPKEHDNRRNGYGTKTLKTSFGEVAIDVPRDREASFEPELIPKRKRDVSDIEGKVLSMYARGMSQRDIAATVEAIYGFDISHEMISDITDAVLPELEEWQARPLAKCYAFLFVDCMYVTLRENYEAKEYAVYTILGYDLKGNKEILGLWLNQTESKNRWMQVFDELKARGVEDVFFISMDGVSGLEEGAKAIFPSVIVQRCIVHLVRNALRYIPSKDYKEVCRDMKKFYGASSLNAAHAAFGSFQNRWSHYSGAVDVWKRNFAHVEQLFDYGSAIRKIMYTTNAVESVHSSFRKVTKKGAFSNENALLKLLYLRTKELHAKWSGGRIQNWAMVLKQLMINETFSSRMKSMRFTFRNNGRFIQLCVRSKFI” here?
Its value is “not soluble”.

For “MGSDKIHHHHHHMTISEARLSPQVNLLPIKRHSNEEVEETAAILKKRTIDNEKCKDSDPGFGSLQRRLLQQLYGTLPTDEKIIFTYLQDCQQEIDRIIKQSIIQKESHSVILVGPRQSYKTYLLDYELSLLQQSYKEQFITIRLNGFIHSEQTAINGIATQLEQQLQKIHGSEEKIDDTSLETISSGSLTEVFEKILLLLDSTTKTRNEDSGEVDRESITKITVVFIFDEIDTFAGPVRQTLLYNLFDMVEHSRVPVCIFGCTTKLNILEYLEKRVKSRFSQRVIYMPQIQNLDDMVDAVRNLLTVRSEISPWVSQWNETLEKELSDPRSNLNRHIRMNFETFRSLPTLKNSIIPLVATSKNFGSLCTAIKSCSFLDIYNKNQLSNNLTGRLQSLSDLELAILISAARVALRAKDGSFNFNLAYAEYEKMIKAINSRIPTVAPTTNVGTGQSTFSIDNTIKLWLKKDVKNVWENLVQLDFFTEKSAVGLRDNATAAFYASNYQFQGTMIPFDLRSYQMQIILQELRRIIPKSNMYYSWTQL”, which “soluble on expression in E. coli” value is on record?
The value was “not soluble”.

With “MGSDKIHHHHHHMMRKYSDKKNAQTQNYYKDRFYHAPHTVKSDVNESVFKEDFEVLKTQVEILNSFVELDFWVIEIKKEDNVKTLQMLKTLGYLSFTEASAIDFIADKNGFEVFYQLLNLEKKLRVRIKTFVGVKERLQSVAHVFKGANWSEREIYDMFGIFIINHPNLKRILMPDDWFGHPLLKTYPLKGDEFARWYEIDKIFGKEYREVVGEEQRDSGFADDKDTLNFARLYHEVPKGGQKKEISFKQEYQEDEGVAFVKKVKRDEAKILEKRR” as the sequence, how does the “soluble on expression in E. coli” value read?
The value was “not soluble”.

Which “soluble on expression in E. coli” value does the source give for “MEYRIERDTMGEVRVPADKYWGAQTQRSLENFRIGTDRFRMPLEIIRAYGMLKKAAARANLELGELPEEIAKAIIQAAEEVVQGKWDDHFPLVVFQTGSGTQTNMNVNEVIANRASEILGKPLGSKYVHPNDHVNRGQSSNDTFPTAMYVAVALALHQRLYPAVEGLIRTFTAKAQAFDQIVKVGRTHLMDAVPITLGQEIGSWAAQLKTTLAAVKEMEKGLYNLAIGGTAVGTGLNAHPRFGELVAKYLAEETGLPFRVAENRFAALAAHDELVNVMGAIRTLAGALMKIGNDVRWLASGPYAGIGEITIPANEPGSSIMPGKVNPTQVEALTMVVVRVYGNDHTVAFAGSQGNFQLNVYKPVMAYSTLESINLLADAVASFDAHLAQGIEPNLERIEEHLQKNPMLATALNKAIGYDKAAEIVKKALKEKKTLKQAALELGYLTEEEFDRIVVPMRLAKPHEGA” here?
The value was “soluble”.

With “MLPLIRKMKPTDAAALTIINKEQLGYEVPVDVTCKQIEKLLLASDREFLYVYEETKTGKILGYVHAQLYETIYSQTLLNVLGLAVAKEAEGRGIGKQLMTKLETEAKKCNLSAIRLNSGEQRTAAHQFYEHIGYVSDKKQKRFIKYLDT” as the sequence, how does the “soluble on expression in E. coli” value read?
The value was “not soluble”.

For “TNLFHTYQYGKETMRGGSELTLKQSGAPTDQVTHENKSGLDKAYITQWSYGIGETWSLLIPDIKGGSSGYLGYDEKVMETVNPSYAQAIARMNRYWGDQP”, which “soluble on expression in E. coli” value is on record?
The value was “not soluble”.

With “QKRAWITAPVALREGEDLSKKNPIAKIHSDLAEERGLKITYKYTGKGITEPPFGIFVFNKDTGELNVTSILDREETPFFLLTGYALDARGNNVEKPLELRIKVLDINDNEPVFTQD” as the sequence, how does the “soluble on expression in E. coli” value read?
The value was “soluble”.

With “GSHMGGGGGIVLFVDFDYFYAQVEEVLNPSLKGKPVVVCVFSGRFEDSGAVATANYEARKFGVKAGIPIVEAKKILPNAVYLPMRKEVYQQVSSRIMNLLREYSEKIEIASIDEAYLDISDKVRDYREAYNLGLEIKNKILEKEKITVTVGISKNKVFAKIAADMAKPNGIKVIDDEEVKRLIRELDIADVPGIGNITAEKLKKLGINKLVDTLSIEFDKLKGMIGEAKAKYLISLARDEYNEPIRTRVRKSIGRIVTMKRNSRNLEEIKPYLFRAIEESYYKLDKRIPKAIHVVAVTEDLDIVSRGRTFPHGISKETAYSESVKLLQKILEEDERKIRRIGVRFSKFIEAIGLDKFFDT” as the sequence, how does the “soluble on expression in E. coli” value read?
Its value is “soluble”.

Which “soluble on expression in E. coli” value does the source give for “MGSSHHHHHHSSGLVPRGSHWGSPNSSSVDKLMDTIVAVATPPGKGAIAILRLSGPDSWKIVQKHLRTRSKIVPRKAIHGWIHENGEDVDEVVVVFYKSPKSYTGEDMVEVMCHGGPLVVKKLLDLFLKSGARMAEPGEFTKRAFLNGKMDLTSAEAVRDLIEAKSETSLKLSLRNLKGGLRDFVDSLRRELIEVLAEIRVELDYPDEIETNTGEVVTRLERIKEKLTEELKKADAGILLNRGLRMVIVGKPNVGKSTLLNRLLNEDRAIVTDIPGTTRDVISEEIVIRGILFRIVDTAGVRSETNDLVERLGIERTLQEIEKADIVLFVLDASSPLDEEDRKILERIKNKRYLVVINKVDVVEKINEEEIKNKLGTDRHMVKISALKGEGLEKLEESIYRETQEIFERGSDSLITNLRQKQLLENVKGHLEDAIKSLKEGMPVDMASIDLERALNLLDEVTGRSFREDLLDTIFSNFCVGK” here?
Its value is “soluble”.
